Laboratory results published in patent US20120090043A1, “TARGETS FOR RETROVIRUS ASSOCIATED DISEASES” (priority 2009, published 2012).

Tested on: HIV-1 LTR promoter transactivation by HIV-1 Tat
Experiment: Transactivation assay, HIV-1 LTR luciferase reporter with HIV-1 Tat
Assay type: cell-based
Conditions: HEK293 cells co-transfected with pHIV1LTR-Luc, HIV-1 Tat and the human ORF; relative luciferase activity 24 h post-transfection; positive if >=2 or <=0.5 and p<0.05
Excerpt: The plasmids pHIV1LTR-Luc or pHTLV1LTR-Luc containing a luciferase reporter gene under the control of the HIV-1 or HTLV-1 LTR promoters and plasmids expressing either HIV-1 Tat or HTLV-1 Tax and each human ORF found to interact with viral proteins were transfected into 10^4 HEK293 cells using the calcium phosphate method. Twenty-four hours post-transfection, cells were washed three times with PBS, lysed and luciferase activities determined from two independent transfection experiments in triplicate. We computed a paired t-test to assess the difference of the means between samples with and without the human interactor. For a trial to be considered positive, the relative luciferase activities has to be >=2 or <=0.5, and the p-value of the t-test<0.05.
Many HIV/HTLV-human interactions in our data set (130/212) involved the retroviral transactivator proteins HTLV-1 Tax (57/212), HTLV-2 Tax2 (49/212), HIV-1 Tat (10/212) and HIV-2 Tat (14/212). Human proteins interacting with viral transactivators likely influence Tat or Tax transactivation. Expression vectors encoding human ORFs and HIV-1 Tat or HTLV-1 Tax proteins were tested in a transactivation reporter assay against reporter plasmids harboring HIV-1 or HTLV-1 viral promoter sequences cloned upstream of the luciferase reporter gene. In the controls Tat or Tax respectively activated HIV or HTLV LTR-directed gene expression. Co-transfection of interacting human ORFs identified 71 proteins (54% of the 131 human targets in our data set) that regulated HIV (26.7% of targets), HTLV (37.4% of targets) or both (9.9% of targets) LTR promoter activation by Tat or Tax (see Tables 7 and 8; Table 13 below containing quantitative data on the regulation of transactivation). Wherever not expressly specified, constructs used herein were generally made by sub-cloning entry clones from the ORFeome V3.1 into suitable destination vectors.

| Molecule | HIV_LTR transactiv. |
| --- | --- |
| SP100: human host interactor protein, Gene ID 6672, expressed from transfected ORF vector (protein) MAGGGGDLSTRRLNECISPVANEMNHLPAHSHDLQRMFTEDQGVDDRLLYDIVFKHFKRNKVEISNAIKKTFPFLEGLRDRDLITNKMFEDSQDSCRNLVPVQRVVYNVLSELEKTFNLPVLEALFSDVNMQEYPDLIHIYKGFENVIHDKLPLQESEEEEREERSGLQLSLEQGTGENSFRSLTWPPSGSPSHAGTTPPENGLSEHPCETEQINAKRKDTTSDKDDSLGSQQTNEQCAQKAEPTESCEQIAVQVNNGDAGREMPCPLPCDEESPEAELHNHGIQINSCSVRLVDIKKEKPFSNSKVECQAQARTHHNQASDIIVISSEDSEGSTDVDEPLEVFISAPRSEPVINNDNPLESNDEKEGQEATCSRPQIVPEPMDFRKLSTFRESFKKRVIGQDHDFSESSEEEAPAEASSGALRSKHGEKAPMTSRSTSTWRIPSRKRRFSSSDFSDLSNGEELQETCSSSLRRGSGSQPQEPENKKCSCVMCFPKGVPRSQEARTESSQASDMMDTMDVENNSTLEKHSGKRRKKRRHRSKVNGLQRGRKKDRPRKHLTLNNKVQKKRWQQRGRKANTRPLKRRRKRGPRIPKDENINFKQSELPVTCGEVKGTLYKERFKQGTSKKCIQSEDKKWFTPREFEIEGDRGASKNWKLSIRCGGYTLKVLMENKFLPEPPSTRKKRILESHNNTLVDPCEEHKKKNPDASVKFSEFLKKCSETWKTIFAKEKGKFEDMAKADKAHYEREMKTYIPPKGEKKKKFKDPNAPKRPPLAFFLFCSEYRPKIKGEHPGLSIDDVVKKLAGMWNNTAAADKQFYEKKAAKLKEKYKKDIAAYRAKGKPNSAKKRVVKAEKSKKKKEEEEDEEDEQEEENEEDDDK | 3.69 fold change |
| SF3A3: human host interactor protein, Gene ID 10946, expressed from transfected ORF vector (protein) METILEQQRRYHEEKERLMDVMAKEMLTKKSTLRDQINSDHRTRAMQDRYMEVSGNLRDLYDDKDGLRKEELNAISGPNEFAEFYNRLKQIKEFHRKHPNEICVPMSVEFEELLKARENPSEEAQNLVEFTDEEGYGRYLDLHDCYLKYINLKASEKLDYITYLSIFDQLFDIPKERKNAEYKRYLEMLLEYLQDYTDRVKPLQDQNELFGKIQAEFEKKWENGTFPGWPKETSSALTHAGAHLDLSAFSSWEELASLGLDRLKSALLALGLKCGGTLEERAQRLFSTKGKSLESLDTSLFAKNPKSKGTKRDTERNKDIAFLEAQIYEYVEILGEQRHLTHENVQRKQARTGEEREEEEEEQISESESEDEENEIIYNPKNLPLGWDGKPIPYWLYKLHGLNINYNCEICGNYTYRGPKAFQRHFAEWRHAHGMRCLGIPNTAHFANVTQIEDAVSLWAKLKLQKASERWQPDTEEEYEDSSGNVVNKKTYEDLKRQGLL | 0.49 fold change |
